Test system: MS2 coat protein
Assay: apparent KD of MS2 coat protein; designed switch direction (-1 OFF switch, 1 ON switch): -1; higher = weaker reporter binding
How it was run: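 RNA switches sharing common flanks were transcribed by stalled E. coli RNA polymerase on Illumina chips. A doubling series of SNAP-549-labelled MS2 coat protein, from 0.7 or 1.5 nM to 3 µM, was applied in Tris-HCl pH 7.5 buffer with KCl, MgCl2, BSA, DTT, tRNA and Tween-20. Each step lasted 0.8–1.5 h at the bottom of the series and 10–20 min at the top. Normalised cluster fluorescence was curve-fitted, giving apparent KD as the per-design median over clusters.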

[1] = input ligand: microRNA oligo, concentration not stated
[2] = Eterna round: R95, input ligand: microRNA oligo, concentration not stated
[3] = Eterna round: R95, input ligand: FMN 200 uM
[4] = Eterna round: R95, input ligand: none

| Sequence | apparent KD of MS2 coat protein (input ligand: FMN 200 uM) [nM] | apparent KD of MS2 coat protein (input ligand: none) [nM] | apparent KD of MS2 coat protein [2] [nM] | other results |
| --- | --- | --- | --- | --- |
| CCGUUCCGUGUAGGAUAUUGGCCUACCACGGGCCGAGAAGGACAUGAGGAUCACCCAUGUAUGCUAUUAUCGCGCGUGGCGCCC [Design 99] (Eterna round: R96, puzzle: Exclusion NG 1) | 24 | 21.8 |  | apparent KD of MS2 coat protein [1]: 15.4 nM |
| UUUUAACAUGAGGAUCACCCAUGUGAGGAUAUCGAAAUUUAUAUUUAUAUUAAUUAAACGAGAAGGCACAUUUU [JMF 83] (puzzle: Exclusion 1) |  |  | 74 |  |
| GAAAAGGUAGGAUAUACGAAAAAAAAGGGUAGAAAAAAAACACAUGAGGAUCACCCAUGUAGAAGGACCAAAAG [Mat - Exclusion 2 - Tesla mod - D30] (Eterna round: R96, puzzle: Exclusion 2) |  |  |  | apparent KD of MS2 coat protein [1]: 25.3 nM |
| UCUAGACAUGAGGAUCACCCAUGUGAGGAUAUGAUGCGAUCGUCGAAAGACGAUAGCAUCAGAAGGCACAUAUG [Fiskers Ex 1 - 4] (puzzle: Exclusion 1) |  |  | 117 |  |
| GAACGCCGGCAGGAUAUGGACAGCCAAAAGGCGCCAGAAGGGCCAACAUGAGGAUCACCCAUGUGUCCUGAUGG [Riceanon] (puzzle: Exclusion 6) |  |  | 8.46 | apparent KD of MS2 coat protein [3]: 10.9 nM; apparent KD of MS2 coat protein [4]: 10.3 nM |
| UUUUACCGAGGAUAUACAUUUUUUUUAUUAUCCUCAUUAUUACAUGAGGAUCACCCAUGUAGAAGGCGGAUUUU [My Design] (puzzle: Exclusion 2) |  |  | 56.9 |  |
| GGUGGUAUGUCAGGAUAUACAGCCUAAAUGGAAGUAGAAGGGACACAUGAGGGUCACCCAUGUGACAUGAGGAUCACCCAUGUA [Hi3 10-05-2015] (Eterna round: R96, puzzle: Exclusion NG 1) | 64 | 60.7 |  | apparent KD of MS2 coat protein [1]: 41.1 nM |
| AUUAAGUGAGGAUAUACAAGAUCGCUUACCGCCAAAGGCGGACAUGAGGAUCACCCAUGUAGAAGGCACAAAUU [Vesoanor] (puzzle: Exclusion 2) |  |  | 40.9 |  |
| UAGGAGAGAGUGAGGAUAUCCGGAAGAGAGGAUCAGGAGAAGGCACAUGAGGAUCACCCAUGUAAAAGAGGGAA [I think I solved risk of not working] (Eterna round: R97, puzzle: Brourd's mod of Exclusion 4) | 63.5 | 51.9 |  |  |
| ACUACUAACACGAAAGUGUUAGUACAAUAAGCUUGUGAAACAUGAGGAUCACCCAUGUCCUCAUAAGCUCGUCUUAA [salish99_TOv2_r3_012] (puzzle: Sensor v3, turn-off variant 2) |  |  | 211 | apparent KD of MS2 coat protein [3]: 14.4 nM; apparent KD of MS2 coat protein [4]: 13.8 nM |
| UAAGGGUGCGUAGGAUAUCGCGGCCGAAUAAAGCGAGAAGGACGCCCGAAUGGGUCGUCCAACAUGAGGAUCACCCAUGUAAAC [Soerre] (Eterna round: R96, puzzle: Exclusion NG 1) | 140 | 50.2 |  | apparent KD of MS2 coat protein [1]: 36.5 nM |
| AAGAAACAUGAGGAUCACCCAUGUGAGGAUAUGAAAAAGAAAAGAAAAGAAAGAAGCUUCAGAAGGCACAAAGG [salish99-ex1_r3_030] (puzzle: Exclusion 1) |  |  | 27.5 | apparent KD of MS2 coat protein [3]: 38 nM; apparent KD of MS2 coat protein [4]: 39.4 nM |
| CUCUAGUCAGGAUAUCACGUUUACCGUGCACUCACAAAGCCUGAGAAGGGACUUGAGGAUCACCCAAGUGGGAA [Reedbequ] (Eterna round: R97, puzzle: Exclusion 4) | 211 | 231 |  |  |
| GUGGUACAUGAGGAUCACCCAUGUCAGGAUAUCGUGUGUUUUUUUUCGGCCGCGCGUGCGAGAAGGGACGUCUU (puzzle: Exclusion 1) |  |  | 17.3 |  |
| CCGCGUGUCGGACUGGGUUACAUGAGGAUCACCCAUGUUCGGUAAACUAAGCGUUUGCUCGUCUAAACCAUUCUCGA [Eternabot (Original) Solution 24] (Eterna round: R97, puzzle: Sensor, turn-off variant 1) | 175 | 205 |  |  |
| UCACGGGACUGAGGAUAUACAUGAACCAUGGUUGUAGAAGGCAGAAGGUUGGAUCAUACACUAAACAUGAGGAUCACCCAUGUU [JR_ExcNG1_Sub028] (Eterna round: R96, puzzle: Exclusion NG 1) | 16.4 | 21.8 |  | apparent KD of MS2 coat protein [1]: 15.7 nM |
| GUGUUGUCAGGAUAUCUUACAUAACAAUCGUUGUUACCAUUGGAGAAGGGACAUGAGGAUCACCCAUGUUAACC [tap-tap-tappy46] (Eterna round: R97, puzzle: Exclusion 4) | 18.9 | 19.6 |  |  |
| AAUCCACAUGAGGAUCACCCAUGUCAGGAUAUCGCGCGCGCGUUUUCGGUCUUGCGCGCGAGAAGGGACGGCUG (puzzle: Exclusion 1) |  |  | 22.9 |  |
| UUUAAUUGUCAGAUGGGUGACAUGAGGAUCACCCAUGUCACAAGCUUUUUGCUCGUCUUAUAAUUAACCCAUCUGAC [Stov1/11-A1] (Eterna round: R97, puzzle: Sensor, turn-off variant 1) | 13.5 | 12.3 |  |  |
| CCUUGUCUGAAGGAUAUCCGCCGAAAAGGCAAGGGAGAAGGUUAGACAUGAGGAUCACCCAUGUGCCGGUGUAA [EX6 A.3] (Eterna round: R97, puzzle: Exclusion 6) | 44.2 | 25.5 |  |  |
| AGUACUAUCGCGAAAGCGAUAGUACAAAAAGCAAGUGAAACAUGAGGAUCACCCAUGUCCUCAUUUGCUCGUCUUAU [Mat - Sensor v2 -ver2- JL mod - D89] (Eterna round: R96, puzzle: Sensor v2, turn-off variant 2) | 12.1 | 14.3 |  | apparent KD of MS2 coat protein [1]: 390 nM |
| UAGUACCAAGGAUAUGCGUGACCAUGGCCUCCGUGGUAGAGACAUGAGGAUCACCCAUGUAGAAGGUGGAUAAC [Eternabot (L1) Solution 74] (Eterna round: R97, puzzle: Exclusion 2) | 401 | 335 |  |  |
| AAAACACAUGAGGAUCACCCAUGUGAGGAUAUGUUAAUUUCGGCCAAAGCCGAAAUUAACAGAAGGCACAUAAA [JR_Exclusion1_Sub019] (puzzle: Exclusion 1) |  |  | 46 |  |
| GAAGAUCUGCAGGAUAUGAGACUGAAACAGUUCUCAGAAGGGCGGACAUGAGGAUCACCCAUGUAAGACUGCAA [Eternabot (Original) Solution 4] (Eterna round: R97, puzzle: Exclusion 6) | 41.6 | 78.8 |  |  |
| AGUCUGCGAGGAUAUACAUGAGGAUCACCCAUGUGCGAGAUACUAGUGAGGUCGAUUGGUAGAAGGCGCGGACA [Mat - Exclusion 3 - Mod of JL D86] (puzzle: Exclusion 3) |  |  | 84.5 |  |
| UUGCUUUCUUAGUACUCUAUAAGUUUUUUGUUCGUUUUAACAUGAGGAUCACCCAUGUCUAGUGGAUCUGAUCGGGU [JL ViennaUCT Isreen mod 7] (puzzle: Sensor v3, turn-off variant 2) |  |  | 303 | apparent KD of MS2 coat protein [3]: 150 nM; apparent KD of MS2 coat protein [4]: 163 nM |
| AAGAAACAUGAGGAUCACCCAUGUGAGGAUAUGUAAAAUAAAAGAAAAUAAAGAAUAAACAGAAGGCACAAAGG [Mat - Mod of Hog D23] (puzzle: Exclusion 1) |  |  | 46.5 | apparent KD of MS2 coat protein [3]: 48 nM; apparent KD of MS2 coat protein [4]: 43.5 nM |

From the supplement of paper PMC9170038
